Source: the DeepSol protein solubility set

Assay: soluble on expression in E. coli; label from the status in PepcDB or PDB records

Soluble on expression in E. coli, soluble:
MSTVPISGRSQIMLVQDSEILSSSALQYKQFLSKVKISKNATSTAQVRRVGQKVAAATMLYLKQNGLGDMASQMKWEFNVVEDKAVNAFCMPGGKIVVYTGLLKLVGSDAELATVISHEVSHAVARHSNERISQEYLRQMGGNILGAAVSNKSAALQTVIGQAYGIGSQVLITLPYNRKQEYEADKIGLVFMAMAGYNPNAAITFWQKMAAQGNGRVEFLSTHPSDANRIAAIRQYMPEAMKHYKSKLEHHHHHH, MSVIIVGGGMAGATLALAISQFSHGTLPVHLIEAKAPEADGHPGFDARAIALAAGTCQQLARIGVWLAISDCATAINTVHVSDRGHAGFVTLDAQDYSLAALGHVAELHDIGLRLFALLRKAPGVTLHCPERVASVSRTQQQVNVTLENGNVIAGSVLVAANGTHSALASACGVDWHQEPYEQLAVIANVATAIPHQGRAFERFTPNGPLAMLPMSHGRCSLVWCHPLDQRDEVLSWSDAQFCHALQAAFGWRLGRITQAGKRSAYPLALTTAAKVFTHRTVVVGNAAQTLHPIAGQGFNLGLRDVMSLAETLVAAQDAGEDIGAWHVLSRYQQRRQVDRDTTIGVTNGLVHLFANRWAPLVIGRNIGLMAMELLPPARDALAQRTLGWVARLEHHHHHH, MSVIRLHQYQVVGRALPTEKDEQPKIYRMKLWATNEVLAKSKFWYYLRRQKKVKKSNGQMLAINEIFEKNPTTIKNFGIWLRYQSRTGYHNMYKEYRDTTLNGAVEQMYTEMASRHRVRFPCIQIIKTATVPASLCKRESTKQFHNSKIKFPLVFRKVRPPTRKLKTTFKANKPNLFM, MSVPSSLSQSAINANSHGGPALSLPLPLHAAHNQLLNAKLQATAVGPKDLRSAMGEGGGPEPGPANAKWLKEGQNQLRRAATAHRDQNRNVTLTLAEEASQEPEMAPLGPKGLIHLYSELELSAHNAANRGLRGPGLIISTQEQGPDEGEEKAAGEAEEEEEDDDDEEEEEDLSSPPGLPEPLESVEAPPRPQALTDGPREHSKSASLLFGMRNSAASDEDSSWATLSQGSPSYGSPEDTDSFWNPNAFETDSDLPAGWMRVQDTSGTYYWHIPTGTTQWEPPGRASPSQGSSPQEESQLTWTGFAHGEGFEDGEFWKDEPSDEAPMELGLKEPEEGTLTFPAQSLSPEPLPQEEEKLPPRNTNPGIKCFAVRSLGWVEMTEEELAPGRSSVAVNNCIRQLSYHKNNLHDPMSGGWGEGKDLLLQLEDETLKLVEPQSQALLHAQPIISIRVWGVGRDSGRDFAYVARDKLTQMLKCHVFRCEAPAKNIATSLHEICSKIMAERRNARCLVNGLSLDHSKLVDVPFQVEFPAPKNELVQKFQVYYLGNVPVAKPVGVDVINGALESVLSSSSREQWTPSHVSVAPATLTILHQQTEAVLGECRVRFLSFLAVGRDVHTFAFIMAAGPASFCCHMFWCEPNAASLSEAVQAACMLRYQKCLDARSQASTSCLPAPPAESVARRVGWTVRRGVQSLWGSLKPKRLGAHTP, MSVQDTKAVEFSMGHIRSSSVSLVAEATSNTNSEDKLSKVQLYEDLCRYEDTLSKLVESVDRFKPNLDIAKDLIRTDEALFENVKLLAEYDNIYRNLQKIDKDSEELDSKTRKILEILNECHDELKALPMLEQVEFEKNTILQQRSKINSTELLDYATKLSKFTKIPPTFDKGAVGPNNFIWPAEDALRRGMLAMASLHSKELTRIPGEEVEETEVPTVPPSQSEEQKGQMAKKEGTPKTDSFIFDGTAKEVGDEADNTKDKEKEENNDDALDLDLDLFDPDDF, MSYFSHQDPNNPESHINFTMAQMEIQRWTLLISNPEADASTLVMELKTVTGESKHFINQAINAMWALMKLPILRVVVETHFHVRIPYLARIMQAVKQAKPELWDELDHRIAEKLTPRIAGQALMEASALAGLITRWIKELDPTFTGKKRGPKGSDGTLTFRHVDGRTYISGNIDGVTGKLFQKALEKVKQKGEDLARALVTFLAGRTKVKIVSAVYTPLVGGVSWIPGVGFLSQEESRKLGKTASKVIDLDTIATRVENGYTPSPELRLYVMGRDGTCRHPGCTVSADNCQIDHVIPFGEGGLTVAWNLQCLCAHHHNMKTDGRIQAAIDSMGRVAWIGPCNRTVVTEPVGPLAQEMPTGQWGQTLEARMEKTFEKLRSSLEVLDDLEHHHHHH

Soluble on expression in E. coli, not soluble:
MSTTPGTPHGVTHSLMEQGWYWADADRSAVSKALSDQPDGSFIVRNASTPGDYTLSVKFAAQVKLLRIVVKDGKCGFNTDSLTHDSVVRLIEFHRNISLNIFNDALDVRLLYPVSVRRNSQNGKPFFKKGQLQQRMILSAKNDHDWRERLEMENLRAVHLAFERGAKLYDSAHQEMERAESLYHALNQSVRDNEIKLGKLNNLLEAETDVVTQIQGSQTTSEMLKGAFANNKTFVEESIRRINTELTSSKDKKKTLSGILDEIAMKRSNSKTRLCKLMELRSAVYDKMEPALCSRMAAMLDAGAEMINSEPTKVTQLLVDMELKWTPAQYLMCGTSKENAANALIHARYRIAQLDKAVGLKREPQDGIFLIRGSSSHGDKLVLSVLHGERVSHCLIEQNEEGWGFEHSNVYLTTISDFVRYYSHFSLETHADAIKTPLRTPAFDAVTSDTSKPLRNGPGQVFTALPISRKYMEKALLTDDPTKPPESPEPRPDSWDSPSPDTPSSSDSRLVHPTTLPKSIPE, MSTVRSIYYRGSLEHCNYTCSYCPFGRKSVSADTTEDQEALDRFISRIGGWKYGSLRILIIPYGEAMIHRYYREGIMRLAAMPHVIGVSCQTNLSFSVSRFLDEAEAEQADVSKFRFWASYHPEMVGVGEFASKVEMLRAAGIGVCAGAVGDPSAKEQIRKLRQLLDPSVYLFVNAMQGLRKPLSEEDIRFFGEIDNLFDYDRRNAKACLDGCVGGRETLFIDRKGDMYACPRSGIRMGNFYDDSTSDFQPFCLRKVCDCYIAFSNLCDTPLRRMMGDGALWRIPERKKVEAVFFDVDGTLTDAQGRIPDRTVSVLEYMAKRLPLYLSTALPVSHAKKRLGNVFGLFSGGVFADGGLLCYGETIECVPIANPMTAGFPGCRVTRYTREGKVFKYAVLAPNTREAVRWLTELDEEAYQLYQEGRLLTVVDSKASKKNGLITLCARLGISLREVLVVGNTMHDWPMMSVAGYSCAVMDAEEKLRKLSGYVLNPDSIPVFFDILEHHHHHH, MSVKKLENGQYQVDVSFGFDPITGERIRTRPVASTRKEALELEAKLRREFQEERARKSRSVSFPTLISIYLASCEIDSKPNYYQNQKYIINKHISDYFLKSDIQKITHREITDFRKHLMETGLSNKSVNNIMTSLSKIFDTAVHEEILKRNPCDNVKRLPLTRKKMKFWRPEEFKKFISLIPQDQLLFKTFYTVAFLTGLRCGEMLALQWKDIDKILLEIDVHKSCTWLDGQFVVTTPKTKNSIRRVSINKKLLKLLERWKEAQEELFNELGIRHSHDTYIFQYKDTPSRKDIFSRKIKYFCKDSDLTPIRLHDFRHSHVALLIHQGEDYITIKERLGHGSVKTTIDVYGHLYPNKQKEMADKLDDLL, MSVKSDSRHLYLRVIDHIKEKIKDGAYKERQKLPSEFDLAKELGVSRATLREALRILEEENVVIRRHGVGTFVNAKPLFSSGIEQLSSITDMISSVGKTPGTIFLSSSTTSLTEEEKEKFNSEDGFNAVMIERVRTADGEPVVYCIDKLAKEILPDLSGYNEESLLTVIHNNTHKRITYAVAHIEPIGYHPKISPILECEPETALLVLKQMHYDQNDEPILYSINYFRADKFSFHVLRKRM, MSVNVRPVKRFVEEQKKKNPEIKLSEKATQLLTDMPKMDSPEKLFNLEDKIATEMGSDRIFEEFLQDYAFLRNAVEEYLDGKPTSSDTISKIARLRRNTRLTHYGTALMRKEVAERMENVDAKLLQLQNVTSEVQHIQKEIDRCLDFSAGDEELELVPFEQFHTEASEILANETADNEHEQYLARLKFENEQRRELLSTLNELEGRRNVLQSDIRGKEVRLQGLKPKLEDLTKVAEPVFEMVGAKFKDLSIEGEQRKLSLQLPAPLAVAHIHAAAYKEIHDGEYSKILRNFLYKYKLFEFRILGTNDTEKQSKDETEAMKRKRKEDETTQEKINKMASELLEVHPMSLEFEIECSENIKISMQIQYLTELKVTTAKWHINTDSKLKKSPFFSIDSLMSDLFENDTGDKCPNDVGEMKIEHLKMNFNSSAKQIGKPFKFIQEISGSEGETDRIGATEHLRKVITTIRTRISNRAVLDGIIRDLESKKTDDLNLEPEVKINSFKICDDESFIASIPTSLTKKISNSAATDRFSYKIEASDGNGRKLTAYISIPADYPRHTALFGIAAPEDSESSTEVARQIEDRLNTEAHYVDDVKSIKEQLSLLLKHIDLS, MSVPPGSIIVSDWHRCPDSREFFSKILHKKRRRKFGKTGVGKSALAARLAGLDLPKMHYETTGIETTVVFWPVRLKESGRVLFFRFELWDCGESAMRRFDHMLLSCKEKVDAILFLFSFTDRGSFDDLTNQISRITEPSDRVVKLVVGTKRDGERRDTFSGGVGSSGFPCGR, MSVSARSAAAEERSVNCGTMAQPKNLEGYVGFANLPNQVYRKSVKRGFEFTLMVVGESGLGKSTLINSLFLTDLYSPEYPGPSHRIKKTVQVEQSKVLIKEGGVQLLLTIVDTPGFGDAVDNSNCWQPVIDYIDSKFEDYLNAESRVNRRQMPDNRVQCCLYFIAPSGHGLKPLDIEFMKRLHEKVNIIPLIAKADTLTPEECQQFKKQIMKEIQEHKIKIYEFPETDDEEENKLVKKIKDRLPLAVVGSNTIIEVNGKRVRGRQYPWGVAEVENGEHCDFTILRNMLIRTHMQDLKDVTNNVHYENYRSRKLAAVTYNGVDNNKNKGQLTKSPLAQMEEERREHVAKMKKMEMEMEQVFEMKVKEKVQKLKDSEAELQRRHEQMKKNLEAQHKELEEKRRQFEEEKANWEAQQRILEQQNSSRTLEKNKKKGKIF, MSVSHAQLKAFHAVAVYGSFTRAAERLFLTQPAVSDQVRKLEERYGVLLFHRNKRSVRLSELGERLLAVTQRLFAIEAEAEELLSASSALQTGTLTLAVDAPVHVLPQIARFCERYPGIAVRVETGNTDESLQRLFSYQADLALLGRDVSDERLLSLTLRNDPIVAFVSLSHPWAGRESIRLADLDDMPLVLREQGSVTRQTLEEEMSRAGLRICPAIQVEGREASREAVVAGIGVGVVSAAEFGADTRVHALPIVDCQRRLTETLVCLREQRSRRIVETFLDLVGEDLPAPS, MSVTMSEAFDYSMIDNILSEHGTSETAIIAILQSIQEEYHYIPKEVFPYLSKKLKVSEARIFSVATFYENFSLEPKGKYIIKVCDGTACHVRKSIPIIERLRKELGLSGTKPTTDDLMFTVETVSCLGACGLAPVITVNDKVYAEMTPDKASELIKQLREGDADA, MSWTGRLQCTAAFRNGRTVILDSYNEGALKLMRPVYLNSTYPTLYLVHVGGGYVDGDSYDMEISLEPSARLMVTTQSAAKIYKTPSTPVRQYTRFSLGEQSVLEYFPDPTIAYEHARFVQETTVYITSSSTVVYGEIITPGWSESGELFRYDWIRSKLKVYQDEALVLFDHLYLDSRQHLTSMLQLGGYTHVGSLVALSPFITKEVLERFNQFMEEMPQEVRCGFSAAAVPGFSVRILAYETSAIEAIFQRVQQFIRQQCGEKTPVCWRKY, MSYLRALFFVLAMLATFGSMAGEPAHSDSGRDQVIRQILSDFWGNAKDVHGNAIQPASQEDRATVPISRAAAYRALEAGNLSGLAEWCGLDWEQHYLGLTEEARKMGMLDKQVAFFSVLHGAGQGAMVGSRSGQTCTAKQRTRIETLLLESQKEGLPSDALNGWQ, MSYRESRQRLERLTESPSHLTIWRRMQELSYESKFEYESFVSADGTKLHAKRSKKLDVKVIAGKSVIVGINESHREMRGEYDVKATVVGDADRDLSCF
